The record followed here is patent US20020132976A1 (published 2002).

This assay has as its target T1, membrane-bound HLA-A0201 molecule on T2 cells (human).
T1 construct: whole, on cells; also called surface HLA-A0201 molecules; human MHC class 1 molecule
Put plainly: T2 cell HLA-A0201 stabilisation, BB7.2 staining, flow cytometry. The method, then: Thus, the detection of this specific epitope is indicative of stable membrane-bound HLA-A0201 molecules loaded with peptide. Subsequent dissociation of peptides from the HLA class 1 MHC molecules results in the loss of BB7.2 monoclonal antibody binding.
T2 cells were propagated in Iscove's complete medium (iscove's medium supplemented with 10% heat-inactivated bovine serum, 120.0 units per ml of penicillin G sodium, 120 μg per ml of streptomycin sulphate, and 0.35 mg per ml of L-glutamine). The ability of PSA peptides (Table 1) to bind and stabilize surface HLA-A0201 molecules on T2 cells was determined utilizing a protocol documented in the art (Deng, Y. (1997) J Immune 158:1507-1515). In essence, 0.5×10⁶ T2 cells were incubated with 125.0 μM of the test peptide in 200.0 μl of serum-free culture medium (Iscove's medium supplemented with 120.0 units per ml of penicillin G sodium, 120.0 μg per ml of streptomycin sulphate and 0.35 mg per ml of L-glutamine) overnight at 37° C. Subsequently, cells were washed twice with Iscove's medium (without bovine serum) to remove free PSA peptide. […] The binding of BB7.2 was detected via the addition of 100.0 μl of PBA containing […] of goat anti-mouse IgG-Fc fluorescein (FITC) conjugate (BETHYL Laboratories Inc.). […] Samples were analyzed by Flow Cytometry. Results were expressed in units of Fluorescence Index (FI), calculated by the equation: […]

DLHVISNDV [CLP-317]: the binding result is listed as “no binding”.
